Assay results published in paper PMC3792046 (PLoS ONE, 2013).

Columns and labels:
SB105-A10-PEG-biotin = assay: SPR; BIAcore X100; biotinylated SB105-A10 immobilised on SA streptavidin sensorchip (560 RU, 0,12 pmol/mm^2); gp41 (0.61-10 nM) or gp120 (12.5-100 nM) injected in HBS-EP (10 mM HEPES pH 7.4, 150 mM NaCl, 3 mM EDTA, 0.005% surfactant P20), 3 min association, 10 min wash; streptavidin-alone surface for blank subtraction; steady-state affinity from RU at equilibrium
gp120 = settings: ref [71], [72]; cited from earlier work

Substance | Kd (SB105-A10-PEG-biotin) [nM] | recognition of positively charged regions on gp120 (gp120)
HIV-1 glycosilated recombinant gp41 ectodomain (amino acids 546-682) (from UniProt P04578 546-682) (domain or fragment) | 3.9 | 
cellulose sulfate |  | recognize positively charged regions on gp120
